Molecular target: the molecule itself
Test: SEC

B1: platelet membrane GMP-140 (P-selectin) (natural protein)
chain: WTYHYSTKAYSWNISRKYCQNRYTDLVAIQNKNEIDYLNKVLPYYSSYYWIGIRKNNKTWTWVGTKKALTNEAENWADNEPNNKRNNEDCVEIYIKSPSAPGKWNDEHCLKKKHALCYTASCQDMSCSKQGECLETIGNYTCSCYPGFYGPECEYVRECGELELPQHVLMNCSHPLGNFSFNSQCSFHCTDGYQVNGPSKLECLASGIWTNKPPQCLAAQCPPLKIPERGNMTCLHSAKAFQHQSSCSFSCEEGFALVGPEVVQCTASGVWTAPAPVCKAVQCQHLEAPSEGTMDCVHPLTAFAYGSSCKFECQPGYRVRGLDMLRCIDSGHWSAPLPTCEAISCEPLESPVHGSMDCSPSLRAFQYDTNCSFRCAEGFMLRGADIVRCDNLGQWTAPAPVCQALQCQDLPVPNEARVNCSHPFGAFRYQSVCSFTCNEGLLLVGASVLQCLATGNWNSVPPECQAIPCTPLLSPQNGTMTCVQPLGSSSYKSTCQFICDEGYSLSGPERLDCTRSGRWTDSPPMCEAIKCPELFAPEQGSLDCSDTRGEFNVGSTCHFSCDNGFKLEGPNNVECTTSGRWSATPPTCKGIASLPTPGVQCPALTTPGQGTMYCRHHPGTFGFNTTCYFGCNAGFTLIGDSTLSCRPSGQWTAVTPACRAVKCSELHVNKPIAMNCSNLWGNFSYGSICSFHCLEGQLLNGSAQTACQENGHWSTTVPTCQAGPLTIQEALTYFGGAVASTIGLIMGGTLLALLRKRFRQKDDGKCPLNPHSHLGTYGVFTNAAFDPSP
stoichiometry N: 4

Reference: paper PMC2119167 (The Journal of Experimental Medicine, 1992)
